Values quoted from earlier work as cited in paper PMC4319847.

How the values were obtained:
[1] = target: Myc NLS NLS (Homo sapiens) (UniProt P01106)
[2] = target: SV40 NLS NLS (Simian virus 40) (UniProt P03070)
Chain of SV40 NLS NLS (Simian virus 40) (P03070 whole entry, looked up): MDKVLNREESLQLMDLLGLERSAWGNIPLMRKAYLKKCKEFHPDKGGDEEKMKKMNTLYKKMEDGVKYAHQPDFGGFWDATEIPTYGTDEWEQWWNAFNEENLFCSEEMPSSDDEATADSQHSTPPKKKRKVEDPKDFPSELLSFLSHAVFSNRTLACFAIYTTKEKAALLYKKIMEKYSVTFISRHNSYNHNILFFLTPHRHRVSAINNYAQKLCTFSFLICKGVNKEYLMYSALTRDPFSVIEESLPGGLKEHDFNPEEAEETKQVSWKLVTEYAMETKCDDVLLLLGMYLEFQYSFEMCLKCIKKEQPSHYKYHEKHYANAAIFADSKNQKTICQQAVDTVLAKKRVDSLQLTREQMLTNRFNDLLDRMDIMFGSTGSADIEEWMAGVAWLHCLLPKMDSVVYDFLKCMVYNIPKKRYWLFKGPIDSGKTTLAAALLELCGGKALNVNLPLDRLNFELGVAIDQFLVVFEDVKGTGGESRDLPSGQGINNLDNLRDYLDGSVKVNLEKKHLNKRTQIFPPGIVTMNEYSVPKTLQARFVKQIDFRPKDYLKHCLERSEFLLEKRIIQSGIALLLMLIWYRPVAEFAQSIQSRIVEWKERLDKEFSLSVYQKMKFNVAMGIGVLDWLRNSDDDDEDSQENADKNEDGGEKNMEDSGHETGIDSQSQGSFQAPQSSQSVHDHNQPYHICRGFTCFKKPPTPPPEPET

Chain of yeast importin-α 89-530 (Q02821 89-530): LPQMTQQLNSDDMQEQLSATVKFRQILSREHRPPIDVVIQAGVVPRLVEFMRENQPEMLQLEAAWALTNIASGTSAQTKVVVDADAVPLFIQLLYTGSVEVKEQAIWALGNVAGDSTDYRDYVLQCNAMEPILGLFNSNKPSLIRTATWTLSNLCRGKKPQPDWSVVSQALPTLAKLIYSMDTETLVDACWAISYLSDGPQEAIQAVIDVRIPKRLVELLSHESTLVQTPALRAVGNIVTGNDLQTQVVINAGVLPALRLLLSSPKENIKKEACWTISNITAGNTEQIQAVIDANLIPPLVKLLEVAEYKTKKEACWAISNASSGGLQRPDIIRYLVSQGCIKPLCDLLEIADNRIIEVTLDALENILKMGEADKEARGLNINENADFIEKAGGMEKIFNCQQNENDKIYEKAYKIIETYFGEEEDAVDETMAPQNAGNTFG
Chain of Myc NLS NLS (Homo sapiens) (P01106 whole entry, looked up): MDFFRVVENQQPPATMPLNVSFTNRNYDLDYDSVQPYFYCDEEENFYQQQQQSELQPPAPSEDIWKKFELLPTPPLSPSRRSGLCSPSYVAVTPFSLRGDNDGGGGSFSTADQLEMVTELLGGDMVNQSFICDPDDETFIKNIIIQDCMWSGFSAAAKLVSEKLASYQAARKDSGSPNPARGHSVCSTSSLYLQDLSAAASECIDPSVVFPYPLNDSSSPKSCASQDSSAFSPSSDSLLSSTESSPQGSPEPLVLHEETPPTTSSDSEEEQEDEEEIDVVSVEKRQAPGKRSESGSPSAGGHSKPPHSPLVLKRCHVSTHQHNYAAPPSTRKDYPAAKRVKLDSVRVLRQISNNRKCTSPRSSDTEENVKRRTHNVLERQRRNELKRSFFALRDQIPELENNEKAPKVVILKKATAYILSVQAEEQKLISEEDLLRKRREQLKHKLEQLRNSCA

Q: With “yeast importin-α 89-530 (from UniProt Q02821)” as the substance, how does the Kd [1] read?
A: 6 nM

Q: What about the Kd [2] of the same substance?
A: 9 nM
